Reference: PMC9891163 (Drug Delivery, 2023)

Experiment: Aqueous dispersibility of the peptide-lipid conjugate
Format: physicochemical

(Dipalmitoyl)lysine-KSS-(SG)5-ApoEdp [ApoEdp-SG-lipid]
Aqueous dispersibility: excellent aqueous dispersibility
